Reference: patent publication US20240108745A1 (MEDILINK THERAPEUTICS SUZHOU, published 2024)

What was measured:
human Her3-his = target: T1, human Her3-his (human, UniProt P21860 20-643); test: ELISA, antigen coated at 1 µg/mL, antibody titrated, anti-human Fc-HRP
T1 construct: range 1-643; also called human Her3 protein
Protocol: (§1) The affinity of anti-Her3 antibody to Her3 protein was detected by ELISA experimental method. Specific experimental procedures: human Her3-his, monkey Her3-his protein and rat Her3-his was diluted with carbonate buffer with a pH value of 9.6 to a final concentration of 1 μg/mL, and then added to 96-well enzyme labelling wells at 100 μL/well, and coated overnight at 4° C.; the coating solution was discarded, and the plate was washed once with PBST, then 100 μL of PBS (containing 2% BSA) was added to each well, and blocked at 37° C. for 1 h; then, 100 μL of anti-Her3 antibody diluted with PBS (containing 2% BSA) ((starting at 1 μg, 3 folds serial dilution, in duplicate wells) was added to each well, and then incubated at 37° C. for 2 h; the plate was washed three times with PBST, and horseradish peroxidase-labeled anti-human Fc antibody (diluted at 1:10000 with PBS) was added at 100 μL/well, then reacted for 1 h at 37° C. The plate was washed 5 times with PBST. TMB chromogenic solution was added at 100 μL/well and incubated at 37° C. for 7 min to develop color, and then the stop solution was added at 50 μL/well to terminate the reaction.

monkey Her3-his = target: T2, monkey Her3-his (monkey); test: as above
T2 chain: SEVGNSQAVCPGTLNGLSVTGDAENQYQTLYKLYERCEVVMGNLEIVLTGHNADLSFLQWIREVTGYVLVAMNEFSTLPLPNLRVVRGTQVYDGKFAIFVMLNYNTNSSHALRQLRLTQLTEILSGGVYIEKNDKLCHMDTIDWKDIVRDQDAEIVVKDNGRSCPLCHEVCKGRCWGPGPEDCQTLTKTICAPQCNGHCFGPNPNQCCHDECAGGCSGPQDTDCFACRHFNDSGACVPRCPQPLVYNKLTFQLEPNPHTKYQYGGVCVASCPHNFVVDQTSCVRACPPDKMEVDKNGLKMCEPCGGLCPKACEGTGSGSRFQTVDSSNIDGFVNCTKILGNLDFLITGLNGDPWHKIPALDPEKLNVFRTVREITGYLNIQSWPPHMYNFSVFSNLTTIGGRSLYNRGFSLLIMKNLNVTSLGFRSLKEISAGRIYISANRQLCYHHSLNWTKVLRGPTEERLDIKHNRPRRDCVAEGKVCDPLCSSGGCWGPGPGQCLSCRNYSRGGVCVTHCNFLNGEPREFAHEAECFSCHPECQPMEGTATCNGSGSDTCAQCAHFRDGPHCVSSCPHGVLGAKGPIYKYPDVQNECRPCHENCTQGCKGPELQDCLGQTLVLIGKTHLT
Protocol: as §1

rat Her3-his = target: T3, rat Her3-his (rat, UniProt Q62799 20-643); test: ELISA, rat Her3-his coated at 1 µg/mL, anti-human Fc-HRP
T3 construct: also called rat Her3 protein
Protocol: as §1

T3 sequence (Q62799 other isoform, or with tags, fused parts or gaps): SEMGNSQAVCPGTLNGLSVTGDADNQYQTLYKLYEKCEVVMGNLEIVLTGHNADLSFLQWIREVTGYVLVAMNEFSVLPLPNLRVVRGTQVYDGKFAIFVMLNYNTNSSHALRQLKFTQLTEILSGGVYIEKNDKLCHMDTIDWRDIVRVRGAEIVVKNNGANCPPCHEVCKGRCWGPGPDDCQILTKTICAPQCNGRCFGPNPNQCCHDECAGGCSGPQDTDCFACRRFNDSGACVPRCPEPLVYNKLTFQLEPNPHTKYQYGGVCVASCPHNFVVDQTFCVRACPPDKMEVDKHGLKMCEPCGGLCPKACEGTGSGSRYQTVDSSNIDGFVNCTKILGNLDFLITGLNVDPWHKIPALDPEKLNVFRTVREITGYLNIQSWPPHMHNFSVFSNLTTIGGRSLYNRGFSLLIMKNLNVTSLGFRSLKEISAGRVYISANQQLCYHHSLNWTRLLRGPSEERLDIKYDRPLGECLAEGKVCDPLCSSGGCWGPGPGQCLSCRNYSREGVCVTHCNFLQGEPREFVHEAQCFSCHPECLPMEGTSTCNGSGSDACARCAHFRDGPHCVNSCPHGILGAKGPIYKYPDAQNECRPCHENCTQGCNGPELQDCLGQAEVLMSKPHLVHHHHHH

B1: anti-Her3 antibody 202-2-1 (antibody, human IgG1, kappa, V domains shown)
VH: EVQLVESGGGVVQPGRSLRLSCAASGFTFSTYGMHWVRQAPGKGLEWVAVIWYDVSHKYYADSVKGRFTISRDNSKNTLSLQMNSLRAEDTAVYYCARDWGDPDAFDIWGQGTMVTVSS
VL: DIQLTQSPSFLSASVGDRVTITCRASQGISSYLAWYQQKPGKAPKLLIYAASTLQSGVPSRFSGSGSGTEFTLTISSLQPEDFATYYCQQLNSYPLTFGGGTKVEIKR
notes: expressed in HEK293F; also called Her3mAb
EC50 (human Her3-his): 0.021 nM | EC50 (monkey Her3-his): 0.0159 nM | binding result (rat Her3-his): no binding
